Reference: patent publication US8926955B2, “Synthesis of polymer conjugates of indolocarbazole compounds” (priority 2008, dated 2015)

Tests used:
[1] = test system: New Zealand White Specific Pathogen Free (SPF) rabbits; experiment: 13 week dermal toxicity study in rabbits with 4 week recovery
Procedure: Three groups, each of 6 male and 6 female New Zealand White Specific Pathogen Free (SPF) rabbits (cf. Table 3: male numbered with even numbers, female numbered with uneven numbers), received the test item by dermal application at dosages of 0.5, 2.5 and 5 mg/animal/day for 13 consecutive weeks (Table 3, group numbers 2-4, respectively). A fourth similarly constituted group received the vehicle alone (purified water) and acted as a control (Table 3, group number 1). Control and high dose groups (Table 3, group numbers 4 and 1, respectively). included 3 additional animals per sex for recovery assessment.
The following investigations were performed: daily clinical signs, body weight, food consumption, macroscopic observations of the treatment sites, clinical pathology investigations, terminal body weight, organ weight, post mortem macroscopic observations and histopathological examination.
The treatment sites were examined, each day, approximately 3 hours after the start of dosing. Irritation of the sites, when compared to the adjacent untreated skin, was assigned a numerical value according to the table below:

rat = experiment: Acute dermal toxicity study in rats; type: in vivo
Procedure: The acute toxicity of the conjugate of Example 3 was investigated following administration of a single dermal dose to the rat.
A single dose of 2000 mg/kg was administered to a group of 5 male and 5 female animals for a 24 hour period. The day before scheduled dosing the fur was removed from the dorsal surfaces of the trunk over an estimated area of 10% of the total body surface. Care was taken to avoid any damage or abrasion to the skin. The test item was administered topically at a dose volume of 4 ml/kg body weight, just after its preparation. The required aliquot of the formulated test item was spread evenly over a gauze measuring 2.5×2.5 cm. The gauze patch was then placed onto the animal's skin, with the test item in direct contact with the skin. A strip of synthetic film was placed over the treated site and the whole assembly held in place by encircling the trunk of the animal with a length of elastic adhesive bandage. After a period of 24 hours, the tape dressing will be removed. The treated skin site was then gently washed free of any remaining test item using lukewarm water. Throughout the study, all animals will be checked twice daily. Animals were examined for signs of reaction to treatment on dosing, approximately 30 min, 2 and 4 hours after dosing on day 1, then daily for a total of 14 days. Each animal was weighed on the day of allocation to the study, on the day of dosing (day 1) and on days 8 and 15. After a 14 day period all animals were killed and subjected to a necropsy examination.

[2] = 0.5, 2.5 and 5 mg/animal/day dermal, 13 weeks

In the case of “oxazolidindionic conjugate of K252a with PEG (1892 MW) [test item]”, the adverse effects ([1]; 0.5, 2.5 and 5 mg/animal/day) is reported as “No adverse effects were seen at any of the dose levels”, the clinical signs [1, 2] is reported as “no treatment-related clinical signs were observed” and the mortality [1, 2] is reported as “No treatment-related mortality occurred”. For the same substance, the “absolute and relative organ weight” value ([1]; 13 weeks dermal) was “no changes in absolute and relative organ weight of toxicological significance were observed”, the body weight ([1]; 13 weeks dermal) was “No relevant differences in body weight were recorded” and the food consumption ([1]; 13 weeks dermal) was “comparable to controls”. For the same substance, the “haematology and clinical chemistry” value ([1]; 13 weeks dermal) was “no changes of toxicological significance were recorded”, the terminal body weight ([1]; 13 weeks dermal) was “comparable between control and treated groups” and the “No Observed Adverse Effect Level (NOAEL)” value ([1]; daily dermal administration to rabbits, 13 weeks) was 5 mg/animal/day. The “irritation of treated sites (macroscopic observations)” value ([1]; daily dermal, 13 weeks) was “No signs of irritation were observed”, the ophthalmic examination ([1]; end of the treatment period) was “no treatment-related lesions were detected” and the “abnormalities in the treated site” value (rat; 2000 mg/kg single dermal dose) was “No abnormalities were observed in the treated site”. For the same substance, the clinical signs (rat; 2000 mg/kg single dermal dose) was “no clinical signs were observed”, the “internal abnormalities at necropsy” value (rat; 2000 mg/kg single dermal dose) was “No internal abnormalities were found at necropsy” and the mortality (rat; 2000 mg/kg single dermal dose, 14 day observation) was “No mortality occurred”. The “changes in body weight” value (rat; 2000 mg/kg single dermal dose, end of study) was “within the expected range”, the toxic effect (rat; dermal exposure over 24 hours at 2000 mg/kg) was “no toxic effect” and the LD50 (rat; single dermal dose, 24 hour exposure, rat) was “greater than 2000 mg/kg”.
